The values below come from US10808017B2, “Ubiquitin variants and uses therof as 53BP1 inhibitors” (The Governing Council of the University of Toronto, priority 2016, dated 2020).

What all share (format): binding
For one assay, the target named is T1, MGA (Homo sapiens, UniProt Q8IWI9).
T1 construct: endogenous in cells; host or cells: HEK293 Flp-In/T-REx cells
The assay can be described thus: Flag IP-MS of i53/i53-DM baits: prey MGA. The note with it: 293T Flp-In/T-Rex extracts, LC-MS/MS, one column per replicate IP. On the procedure: (§1) Following immunoprecipitation of Flag-tagged i53 and i-53-DM from HEK293 Flp-In/T-REx cells, peptides were identified using LC-MS/MS. Proteins were digested in solution with trypsin (Sigma, T7575-1KT) and dried to completeness. For LC-MS/MS analysis, peptides were reconstituted in 5% formic acid and loaded onto a 12-15 cm fused silica column with pulled tip packed in-house with 3.5 μm Zorbax C18 (Agilent Technologies, Calif., USA).
(§2) i53 and i53-DM precipitates were analyzed using an LTQ (Thermo Scientific) coupled to an Agilent 1100 Series HPLC (Agilent Technologies). Peptides were eluted from the column using a 90 min period cycle with a linear gradient from 0% to 40% ACN in 0.1% formic acid. Tandem MS spectra were acquired in a data-dependent mode for the top 5 (LTQ) most abundant ions using collision-induced dissociation. Acquired spectra were searched against the human Refseq_V53 database using Mascot (Matrix Science).
(§3) 293T Flp-In/T-Rex cell lines were generated that expressed Flag-tagged i53 or i53-DM under the control of a tetracycline-inducible promoter as previously described. Nine IP-MS experiments were analyzed (3 biological replicate IPs each for control i53- and i53-DM expressing cell lines). The interacting proteins were identified by MASCOT to identify high-confidence interactors for i53. […]

For the next assay, the target named is T2, ARFGAP2 (Homo sapiens, UniProt Q8N6H7).
T2 construct: endogenous in cells; host or cells: HEK293 Flp-In/T-REx
T2 sequence (Q8N6H7 whole entry): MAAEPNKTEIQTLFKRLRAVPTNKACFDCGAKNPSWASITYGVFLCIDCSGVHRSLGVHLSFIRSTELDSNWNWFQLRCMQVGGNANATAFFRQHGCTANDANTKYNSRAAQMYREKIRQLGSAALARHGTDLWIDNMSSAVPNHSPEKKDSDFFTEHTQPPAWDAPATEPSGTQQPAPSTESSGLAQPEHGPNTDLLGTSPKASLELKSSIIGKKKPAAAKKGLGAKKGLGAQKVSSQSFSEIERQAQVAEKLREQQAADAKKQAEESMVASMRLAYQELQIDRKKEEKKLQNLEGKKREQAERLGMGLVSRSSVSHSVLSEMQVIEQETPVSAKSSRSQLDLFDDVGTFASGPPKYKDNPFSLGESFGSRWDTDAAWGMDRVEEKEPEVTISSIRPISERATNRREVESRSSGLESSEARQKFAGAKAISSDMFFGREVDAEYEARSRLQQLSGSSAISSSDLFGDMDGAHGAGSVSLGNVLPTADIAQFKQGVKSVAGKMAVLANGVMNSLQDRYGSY
The assay is described as follows: Flag IP-MS of i53/i53-DM baits: prey ARFGAP2. The note with it: 293T Flp-In/T-Rex extracts, LC-MS/MS, one column per replicate IP. On the procedure:
as §1, §2, §3

Another assay has as its target T3, TRIOBP (Homo sapiens, UniProt Q9H2D6).
T3 construct: endogenous in cells; host or cells: HEK293 Flp-In/T-REx
The assay is described as follows: Flag IP-MS of i53/i53-DM baits: prey TRIOBP. Particulars: 293T Flp-In/T-Rex extracts, LC-MS/MS, one column per replicate IP. On the procedure: as §1, §2, §3

In the next assay the target is T4, RPL8 (Homo sapiens, UniProt P62917).
T4 construct: Following immunoprecipitation of Flag-tagged i53 and i-53-DM from HEK293 Flp-In/T-REx cells, peptides were identified using LC-MS/MS; endogenous in cells; host or cells: HEK293 Flp-In/T-REx cells
The assay can be described thus: Flag IP-MS of i53/i53-DM baits: prey RPL8. The note with it: 293T Flp-In/T-Rex extracts, LC-MS/MS, one column per replicate IP. Here is the method: as §1, §2, §3

A further assay addresses T5, HIST2H2BE (Homo sapiens, UniProt Q16778).
T5 construct: endogenous in cells; host or cells: HEK293 Flp-In/T-REx cells
The assay can be described thus: Flag IP-MS of i53/i53-DM baits: prey HIST2H2BE. The note with it: 293T Flp-In/T-Rex extracts, LC-MS/MS, one column per replicate IP. Here is the method: as §1, §2, §3

The target of the next assay is T6, FMR1 (Homo sapiens, UniProt Q06787).
T6 construct: endogenous in cells; host or cells: HEK293 Flp-In/T-REx cells
The assay can be described thus: Flag IP-MS of i53/i53-DM baits: prey FMR1. Particulars: 293T Flp-In/T-Rex extracts, LC-MS/MS, one column per replicate IP. On the procedure: as §1, §2, §3

The target of another assay is T7, INTS3 (Homo sapiens, UniProt Q68E01).
T7 construct: Following immunoprecipitation of Flag-tagged i53 and i-53-DM from HEK293 Flp-In/T-REx cells, peptides were identified using LC-MS/MS; endogenous in cells; host or cells: HEK293 Flp-In/T-REx cells
T7 sequence (Q68E01 whole entry): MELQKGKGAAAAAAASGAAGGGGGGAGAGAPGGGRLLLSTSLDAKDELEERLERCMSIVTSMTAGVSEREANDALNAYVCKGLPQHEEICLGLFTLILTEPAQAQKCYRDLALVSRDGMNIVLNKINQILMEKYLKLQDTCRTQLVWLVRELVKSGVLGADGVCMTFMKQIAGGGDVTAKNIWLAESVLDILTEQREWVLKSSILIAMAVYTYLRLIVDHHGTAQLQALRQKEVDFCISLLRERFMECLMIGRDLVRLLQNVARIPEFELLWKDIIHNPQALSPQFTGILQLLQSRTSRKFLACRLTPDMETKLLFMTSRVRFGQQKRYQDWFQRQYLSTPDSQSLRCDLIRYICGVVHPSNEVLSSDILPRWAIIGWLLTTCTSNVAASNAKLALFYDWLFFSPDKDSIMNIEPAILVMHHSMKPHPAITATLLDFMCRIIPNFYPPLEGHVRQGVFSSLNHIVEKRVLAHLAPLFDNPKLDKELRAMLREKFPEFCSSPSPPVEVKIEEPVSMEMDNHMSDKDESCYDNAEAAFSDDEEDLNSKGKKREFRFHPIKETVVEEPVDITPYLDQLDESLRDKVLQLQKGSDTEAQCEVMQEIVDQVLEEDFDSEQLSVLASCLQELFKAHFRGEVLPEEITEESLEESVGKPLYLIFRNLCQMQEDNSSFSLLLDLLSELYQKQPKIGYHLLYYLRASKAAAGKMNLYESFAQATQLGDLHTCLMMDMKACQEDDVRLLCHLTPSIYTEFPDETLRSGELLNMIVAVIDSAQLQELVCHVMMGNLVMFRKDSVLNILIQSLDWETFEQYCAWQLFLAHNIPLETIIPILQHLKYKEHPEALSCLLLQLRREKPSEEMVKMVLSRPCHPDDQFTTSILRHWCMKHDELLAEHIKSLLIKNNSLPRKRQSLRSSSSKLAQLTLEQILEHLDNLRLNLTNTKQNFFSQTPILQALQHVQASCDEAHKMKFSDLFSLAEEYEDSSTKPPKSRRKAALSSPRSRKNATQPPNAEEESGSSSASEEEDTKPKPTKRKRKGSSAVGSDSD
The assay is described as follows: Flag IP-MS of i53/i53-DM baits: prey INTS3. Particulars: 293T Flp-In/T-Rex extracts, LC-MS/MS, one column per replicate IP. Here is the method:
as §1, §2, §3

The next assay has as its target T8, MYCBP (Homo sapiens, UniProt Q99417).
T8 construct: endogenous in cells; host or cells: HEK293 Flp-In/T-REx
T8 sequence (Q99417 1-103): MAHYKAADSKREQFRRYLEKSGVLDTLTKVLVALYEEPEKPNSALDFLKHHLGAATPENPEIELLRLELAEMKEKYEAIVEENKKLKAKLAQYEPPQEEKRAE
The assay can be described thus: Flag IP-MS of i53/i53-DM baits: prey MYCBP. The note with it: 293T Flp-In/T-Rex extracts, LC-MS/MS, one column per replicate IP, listed as Flag-i53-DM. Here is the method: as §1, §2, §3

The next assay concerns the target T9, RPS29 (Homo sapiens, UniProt P62273).
T9 construct: Following immunoprecipitation of Flag-tagged i53 and i-53-DM from HEK293 Flp-In/T-REx cells, peptides were identified using LC-MS/MS; endogenous in cells; host or cells: HEK293 Flp-In/T-REx cells
The assay can be described thus: Flag IP-MS of i53/i53-DM baits: prey RPS29. The note with it: 293T Flp-In/T-Rex extracts, LC-MS/MS, one column per replicate IP. Here is the method:
as §1, §2, §3

Another assay deals with T10, RPL10 (Homo sapiens, UniProt P27635).
T10 construct: endogenous in cells; host or cells: HEK293 Flp-In/T-REx
The assay is described as follows: Flag IP-MS of i53/i53-DM baits: prey RPL10. Particulars: 293T Flp-In/T-Rex extracts, LC-MS/MS, one column per replicate IP. Here is the method:
as §1, §2, §3

In a further assay the target is T11, VPS13C (Homo sapiens, UniProt Q709C8).
T11 construct: endogenous in cells; host or cells: HEK293 Flp-In/T-REx cells
The assay can be described thus: Flag IP-MS of i53/i53-DM baits: prey VPS13C. Particulars: 293T Flp-In/T-Rex extracts, LC-MS/MS, one column per replicate IP. On the procedure: as §1, §2, §3

A further assay deals with T12, KDM5B (Homo sapiens, UniProt Q9UGL1).
T12 construct: endogenous in cells; host or cells: HEK293 Flp-In/T-REx
T12 sequence (Q9UGL1 whole entry): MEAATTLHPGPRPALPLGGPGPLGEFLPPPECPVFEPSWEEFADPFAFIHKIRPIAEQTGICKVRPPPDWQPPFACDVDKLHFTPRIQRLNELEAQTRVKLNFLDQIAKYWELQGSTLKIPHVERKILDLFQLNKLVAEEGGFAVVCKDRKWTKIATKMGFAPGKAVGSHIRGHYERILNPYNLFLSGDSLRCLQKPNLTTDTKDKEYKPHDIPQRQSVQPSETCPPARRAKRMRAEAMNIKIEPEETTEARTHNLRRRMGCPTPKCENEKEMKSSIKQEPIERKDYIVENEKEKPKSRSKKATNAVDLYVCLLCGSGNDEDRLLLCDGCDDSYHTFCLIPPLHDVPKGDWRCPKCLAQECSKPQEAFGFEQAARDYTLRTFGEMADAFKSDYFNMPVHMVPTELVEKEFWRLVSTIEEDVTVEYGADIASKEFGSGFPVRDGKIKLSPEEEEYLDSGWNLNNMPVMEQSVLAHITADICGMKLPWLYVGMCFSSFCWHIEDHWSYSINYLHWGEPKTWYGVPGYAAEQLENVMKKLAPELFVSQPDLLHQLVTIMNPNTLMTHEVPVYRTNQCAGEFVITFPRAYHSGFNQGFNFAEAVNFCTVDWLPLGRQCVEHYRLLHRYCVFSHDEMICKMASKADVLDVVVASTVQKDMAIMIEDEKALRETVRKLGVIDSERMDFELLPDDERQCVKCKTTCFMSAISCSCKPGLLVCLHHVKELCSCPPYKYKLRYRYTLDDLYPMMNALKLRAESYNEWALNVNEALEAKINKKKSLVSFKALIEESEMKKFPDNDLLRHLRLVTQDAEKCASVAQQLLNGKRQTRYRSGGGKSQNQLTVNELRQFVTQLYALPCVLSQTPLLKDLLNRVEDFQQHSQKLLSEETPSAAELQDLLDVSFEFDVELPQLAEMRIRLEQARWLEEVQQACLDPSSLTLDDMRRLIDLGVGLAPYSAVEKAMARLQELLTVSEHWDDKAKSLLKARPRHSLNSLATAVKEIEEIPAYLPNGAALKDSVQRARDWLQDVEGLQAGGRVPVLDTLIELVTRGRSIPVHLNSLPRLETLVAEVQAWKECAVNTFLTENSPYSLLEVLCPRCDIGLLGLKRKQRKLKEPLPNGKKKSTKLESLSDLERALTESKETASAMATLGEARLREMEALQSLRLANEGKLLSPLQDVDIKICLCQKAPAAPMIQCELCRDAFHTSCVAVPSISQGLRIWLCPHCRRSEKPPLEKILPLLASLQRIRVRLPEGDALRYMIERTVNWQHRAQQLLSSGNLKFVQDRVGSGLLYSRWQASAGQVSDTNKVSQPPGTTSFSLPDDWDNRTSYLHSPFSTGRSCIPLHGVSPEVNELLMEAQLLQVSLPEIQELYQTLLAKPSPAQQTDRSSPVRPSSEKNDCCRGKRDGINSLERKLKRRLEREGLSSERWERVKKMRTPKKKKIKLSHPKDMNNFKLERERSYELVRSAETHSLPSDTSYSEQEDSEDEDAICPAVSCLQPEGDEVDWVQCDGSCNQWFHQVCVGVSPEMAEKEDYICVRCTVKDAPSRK
The assay is described as follows: Flag IP-MS of i53/i53-DM baits: prey KDM5B. Particulars: 293T Flp-In/T-Rex extracts, LC-MS/MS, one column per replicate IP. On the procedure: as §1, §2, §3

Another assay deals with T13, GSPT1 (Homo sapiens, UniProt P15170).
T13 construct: endogenous in cells; host or cells: HEK293 Flp-In/T-REx
T13 sequence (P15170 whole entry): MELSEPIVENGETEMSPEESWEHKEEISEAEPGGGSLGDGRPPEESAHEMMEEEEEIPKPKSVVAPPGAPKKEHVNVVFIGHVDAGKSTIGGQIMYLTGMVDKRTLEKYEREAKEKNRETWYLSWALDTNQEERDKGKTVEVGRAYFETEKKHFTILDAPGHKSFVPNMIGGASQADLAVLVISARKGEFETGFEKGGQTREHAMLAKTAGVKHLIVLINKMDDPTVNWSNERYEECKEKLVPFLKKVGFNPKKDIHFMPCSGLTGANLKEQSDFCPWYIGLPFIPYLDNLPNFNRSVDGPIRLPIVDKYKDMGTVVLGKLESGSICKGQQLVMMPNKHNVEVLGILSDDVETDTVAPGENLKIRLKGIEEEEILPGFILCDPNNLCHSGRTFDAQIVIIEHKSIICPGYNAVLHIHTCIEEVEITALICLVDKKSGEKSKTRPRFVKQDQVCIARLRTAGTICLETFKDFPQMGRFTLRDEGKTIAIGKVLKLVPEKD
The assay is described as follows: Flag IP-MS of i53/i53-DM baits: prey GSPT1. Particulars: 293T Flp-In/T-Rex extracts, LC-MS/MS, one column per replicate IP. Here is the method: as §1, §2, §3

The next assay has as its target T14, CFL1 (Homo sapiens, UniProt P23528).
T14 construct: endogenous in cells; host or cells: HEK293 Flp-In/T-REx
The assay is described as follows: Flag IP-MS of i53/i53-DM baits: prey CFL1. The note with it: 293T Flp-In/T-Rex extracts, LC-MS/MS, one column per replicate IP. Here is the method: as §1, §2, §3

The next assay has as its target T15, HIST1H2BG (Homo sapiens, UniProt P62807).
T15 construct: endogenous in cells; host or cells: HEK293 Flp-In/T-REx
The assay is described as follows: Flag IP-MS of i53/i53-DM baits: prey HIST1H2BG. The note with it: 293T Flp-In/T-Rex extracts, LC-MS/MS, one column per replicate IP. On the procedure: as §1, §2, §3

A further assay concerns the target T16, PHB (Homo sapiens, UniProt P35232).
T16 construct: endogenous in cells; host or cells: HEK293 Flp-In/T-REx
T16 sequence (P35232 1-272): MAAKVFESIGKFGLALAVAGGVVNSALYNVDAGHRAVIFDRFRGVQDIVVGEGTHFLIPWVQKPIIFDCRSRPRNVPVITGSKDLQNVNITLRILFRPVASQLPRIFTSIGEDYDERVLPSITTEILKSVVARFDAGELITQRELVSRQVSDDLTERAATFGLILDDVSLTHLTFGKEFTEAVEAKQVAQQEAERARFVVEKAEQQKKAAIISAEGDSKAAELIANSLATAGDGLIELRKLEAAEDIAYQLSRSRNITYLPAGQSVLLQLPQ
The assay is described as follows: Flag IP-MS of i53/i53-DM baits: prey PHB. Particulars: 293T Flp-In/T-Rex extracts, LC-MS/MS, one column per replicate IP. Here is the method: as §1, §2, §3

Several values for one entry are separate records, joined by “and”; a condition that tells them apart may be missing. Equal values may be shown once.

T14 sequence (P23528 whole entry): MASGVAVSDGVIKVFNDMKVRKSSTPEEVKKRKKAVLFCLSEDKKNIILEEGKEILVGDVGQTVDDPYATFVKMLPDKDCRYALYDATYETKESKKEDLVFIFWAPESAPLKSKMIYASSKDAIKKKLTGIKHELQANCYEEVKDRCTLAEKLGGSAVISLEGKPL

Regarding “i53-DM: 53BP1-binding deficient mutant of i53 (P69L, L70V)”, the “Total peptides, MGA” value with MGA is given as 2. Moreover, the “Total peptides, ARFGAP2” value with ARFGAP2 is given as 3. In addition, the “Total peptides, TRIOBP” value in the assay with TRIOBP is given as 3. In addition, the “Total peptides, RPL8” value in the assay with RPL8 is on record as 5. Also, the “Total peptides, HIST2H2BE” value with HIST2H2BE worked out at 3. The “Total peptides, FMR1” value with FMR1 came to 6. The “Total peptides, INTS3” value in the assay with INTS3 was 3. Besides, in the assay with MYCBP, the “Total peptides, MYCBP” value was 7 and 5. For the same substance, in the assay with RPS29, the “Total peptides, RPS29” value is reported as 3. Moreover, the “Total peptides, RPL10” value in the assay with RPL10 is 11. Further, the “Total peptides, VPS13C” value in the assay with VPS13C was 5. The “Total peptides, KDM5B” value in the assay with KDM5B is given as 3.

Consider “i53: UbvG08 with C-terminal di-glycine removed and I44A mutation; genetically encoded inhibitor of 53BP1”, for which the “Total peptides, GSPT1” value with GSPT1 came out at 3. In addition, the “Total peptides, CFL1” value with CFL1 is on record as 6. Besides, in the assay with HIST1H2BG, the “Total peptides, HIST1H2BG” value came out at 4. Further, the “Total peptides, PHB” value in the assay with PHB is 2.
